Values of other authors as cited in paper PMC11612555, “Impact of camel milk lactoferrin peptides against breast cancer cells: in silico and in vitro study” (Frontiers in Pharmacology, 2024).

B1: lactoferrin (protein, UniProt P02788 20-710, looked up)
Lactotransferrin: GRRRSVQWCAVSQPEATKCFQWQRNMRKVRGPPVSCIKRDSPIQCIQAIAENRADAVTLDGGFIYEAGLAPYKLRPVAAEVYGTERQPRTHYYAVAVVKKGGSFQLNELQGLKSCHTGLRRTAGWNVPIGTLRPFLNWTGPPEPIEAAVARFFSASCVPGADKGQFPNLCRLCAGTGENKCAFSSQEPYFSYSGAFKCLRDGAGDVAFIRESTVFEDLSDEAERDEYELLCPDNTRKPVDKFKDCHLARVPSHAVVARSVNGKEDAIWNLLRQAQEKFGKDKSPKFQLFGSPSGQKDLLFKDSAIGFSRVPPRIDSGLYLGSGYFTAIQNLRKSEEEVAARRARVVWCAVGEQELRKCNQWSGLSEGSVTCSSASTTEDCIALVLKGEADAMSLDGGYVYTAGKCGLVPVLAENYKSQQSSDPDPNCVDRPVEGYLAVAVVRRSDTSLTWNSVKGKKSCHTAVDRTAGWNIPMGLLFNQTGSCKFDEYFSQSCAPGSDPRSNLCALCIGDEQGENKCVPNSNERYYGYTGAFRCLAENAGDVAFVKDVTVLQNTDGNNNEAWAKDLKLADFALLCLDGKRKPVTEARSCHLAMAPNHAVVSRMDKVERLKQVLLHQQAKFGRNGSDCPDKFCLFQSETKNLLFNDNTECLARLHGKTTYEKYLGPQYVAGITNLKKCSTSPLLEACEFLRK
B2: bovine lactoferrin (protein, UniProt P24627 20-708, looked up)
Lactotransferrin: APRKNVRWCTISQPEWFKCRRWQWRMKKLGAPSITCVRRAFALECIRAIAEKKADAVTLDGGMVFEAGRDPYKLRPVAAEIYGTKESPQTHYYAVAVVKKGSNFQLDQLQGRKSCHTGLGRSAGWIIPMGILRPYLSWTESLEPLQGAVAKFFSASCVPCIDRQAYPNLCQLCKGEGENQCACSSREPYFGYSGAFKCLQDGAGDVAFVKETTVFENLPEKADRDQYELLCLNNSRAPVDAFKECHLAQVPSHAVVARSVDGKEDLIWKLLSKAQEKFGKNKSRSFQLFGSPPGQRDLLFKDSALGFLRIPSKVDSALYLGSRYLTTLKNLRETAEEVKARYTRVVWCAVGPEEQKKCQQWSQQSGQNVTCATASTTDDCIVLVLKGEADALNLDGGYIYTAGKCGLVPVLAENRKSSKHSSLDCVLRPTEGYLAVAVVKKANEGLTWNSLKDKKSCHTAVDRTAGWNIPMGLIVNQTGSCAFDEFFSQSCAPGADPKSRLCALCAGDDQGLDKCVPNSKEKYYGYTGAFRCLAEDVGDVAFVKNDTVWENTNGESTADWAKNLNREDFRLLCLDGTRKPVTEAQSCHLAVAPNHAVVSRSDRAAHVKQVLLHQQALFGKNGKNCPDKFCLFKSETKNLLFNDNTECLAKLGGRPTYEEYLGTEYVTAIANLKKCSTSPLLEACAFLTR
notes: lactoferrin from bovine milk

How the values were obtained:
[1] = test system: MDAmb231 cells; parameters: method as in Rascón-Cruz et al., 2021b; conditions: against MDAmb231; ref Rascón-Cruz et al., 2021b
[2] = test system: HeLa cells; parameters: method as in Rascón-Cruz et al., 2021b; conditions: against HeLa; ref Rascón-Cruz et al., 2021b
[3] = test system: T-47D; parameters: method as in Zhang et al., 2014; conditions: ref Zhang et al., 2014
[4] = test system: MDA-MB-231; parameters: method as in Zhang et al., 2014; conditions: ref Zhang et al., 2014
[5] = test system: Hs578T; parameters: method as in Zhang et al., 2014; conditions: ref Zhang et al., 2014
[6] = test system: MCF-7; parameters: method as in Zhang et al., 2014; conditions: ref Zhang et al., 2014
[7] = test system: MCF-10-2A; parameters: method as in Zhang et al., 2014; conditions: normal breast cell line MCF-10-2A; ref Zhang et al., 2014

Row | Molecule | selective index [1] | selective index [2] | proliferation [3] | proliferation [4] | proliferation [5] | proliferation [6] | proliferation [7]
1 | B1 | 11.68 | 9.59 |  |  |  |  | 
2 | B2 |  |  | inhibited | inhibited | inhibited | inhibited | not
